One molecule from US20060172374A1 (Novartis, published 2006) can be followed below.

The target of one assay is T1, HA-NDR1 T74A (human, UniProt Q15208 1-465).
T1 construct: pCMV5_HA-NDR1 mutant expressed in COS-1 cells; also called T74A mutant
Description: co-immunoprecipitation of myc-hMOB1 with HA-NDR, OA-treated COS-1 cells.

Assay [1] concerns the target T2, HA-NDR N-terminal point mutant, arginine 41 to alanine (human, UniProt Q15208 1-465).
T2 construct: also called arginine 41 mutant
The assay is described as follows: co-immunoprecipitation of myc-hMOB1 with HA-NDR point mutants, OA-treated COS1 cells.

Assay [2] addresses T3, HA-NDR N-terminal point mutant, tyrosine 31 to alanine (human, UniProt Q15208 1-465).
T3 construct: also called tyrosine 31 mutant
The description is as above.

Assay [3] concerns the target T4, HA-NDR N-terminal point mutant, arginine 78 to alanine (human, UniProt Q15208 1-465).
T4 construct: also called arginine 78 mutant
Described as above.

In the next assay the target is T5, HA-tagged NDR1 wild type (human, UniProt Q15208 1-465).
T5 construct: also called HA-NDR1; HA-NDR
The assay is described as follows: co-immunoprecipitation, summary of Example 8.

T1 sequence (Q15208 whole entry T74A): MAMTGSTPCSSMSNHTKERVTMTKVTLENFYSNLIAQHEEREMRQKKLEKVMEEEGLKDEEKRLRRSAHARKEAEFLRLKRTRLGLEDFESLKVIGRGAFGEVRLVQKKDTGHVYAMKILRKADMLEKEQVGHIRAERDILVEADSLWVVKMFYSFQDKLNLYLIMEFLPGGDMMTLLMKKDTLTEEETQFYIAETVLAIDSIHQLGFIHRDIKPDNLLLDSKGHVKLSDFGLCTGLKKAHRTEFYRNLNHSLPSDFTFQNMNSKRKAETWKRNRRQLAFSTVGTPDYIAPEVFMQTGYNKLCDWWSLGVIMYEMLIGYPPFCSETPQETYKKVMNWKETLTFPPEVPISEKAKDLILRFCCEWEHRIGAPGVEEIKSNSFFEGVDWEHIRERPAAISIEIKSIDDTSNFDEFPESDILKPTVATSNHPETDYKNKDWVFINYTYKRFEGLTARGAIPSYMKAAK
T4 sequence (Q15208 other isoform, or with tags, fused parts or gaps mutant limits assumed): as the sequence (Q15208 whole entry T74A) above, with A74T, R78A counted along it
T2 sequence (Q15208 other isoform, or with tags, fused parts or gaps mutant limits assumed): as the sequence (Q15208 whole entry T74A) above, with R41A, A74T counted along it
T5 sequence (Q15208 whole entry): as the sequence (Q15208 whole entry T74A) above, with A74T counted along it
T3 sequence (Q15208 other isoform, or with tags, fused parts or gaps mutant limits assumed): as the sequence (Q15208 whole entry T74A) above, with Y31A, A74T counted along it

B1: myc-tagged hMOB1 (other, not shown: small tags and cut ends)
chain: MSFLFSSRSSKTFKPKKNIPEGSHQYELLKHAEATLGSGNLRQAVMLPEGEDLNEWIAVNTVDFFNQINMLYGTITEFCTEASCPVMSAGPRYEYHWADGTNIKKPIKCSAPKYIDYLMTWVQDQLDDETLFPSKIGVPFPKNFMSVAKTILKRLFRVYAHIYHQHFDSVMQLQEEAHLNTSFKHFIFFVQEFNLIDRRELAPLQELIEKLGSKDR
modifications: okadaic acid induced modification of MOB1 (not identified) in cells treated with okadaic acid
notes: also called myc-hMOB1; myc-mob1
With B1, the binding result was “no binding” in the assay with HA-NDR1 T74A; “no binding” in assay [1]; “no binding” in assay [2]; “no binding” in assay [3]; “binds” with HA-tagged NDR1 wild type.
